Test results taken from patent publication US20220275043A1.

Experiments:
[1] = target: single-chain SIINFEKL-H2Kb expressed on K562 cells (mouse); assay: flow cytometry, purified OT1-TCR-Igg at 20 nM on K562 cells expressing single-chain SIINFEKL-H2Kb
[2] = target: single-chain SIINFEKL-H2Kb expressed on K562 cells (mouse); assay: flow cytometry dot plot (APC-A against Pacific Blue-A) of K562 cells expressing single-chain SIINFEKL-H2Kb, stained with raw supernatant; number printed in the gate 'TCR-Igg pos stain' (same gate in the Negative ctl panel: 1.15)

percent of cells stained at 20 nM [1]: 100%
TCR-Igg pos stain [2]: 39.3
Substance: OT1-TCR-Igg (OTI TCRα-LZL-mIgG HC + OTI TCRβ-LZR-mIgG LC, two separate plasmids)
